According to patent publication US7718353B2, “Proteins, sensors, and methods of characterizing analytes using the same” (University of Maryland Baltimore County, priority 2003, dated 2010):
Like-named read-outs stand apart in the source and are kept apart here.

Columns and labels:
[1] = Fluorescence binding isotherm of labeled S179C GlnBP; conditions: fit to binding isotherm, read-out: binding constant for glutamine
Description: The emission spectra were recorded on a Varian Cary Eclipse fluorescence spectrophotometer (Varian Instruments, Walnut Creek, Calif.). All samples were measured in quartz cuvettes (Starna Cells, Inc., Atascadero, Calif.).
The apparent binding constants were calculated by fitting the experimental results to the binding isotherm (DATTELBAUM et al., Anal. Biochem., 291:89-95 (2001), which is incorporated by reference herein). The binding constants for the single-labeled and doubled-labeled GlnBP were calculated to be 0.23±0.01 μM and 0.28±0.03 μM, respectively. Both were in agreement with the reported value of 100-300 nM for the wild type (SOHANPAL et al., Sensors Actuators B, 11:547-552 (1993), which is incorporated by reference herein). While not wishing to be bound by theory, the reason for this agreement is believed to be that the position of the fluorophore is far from the binding site, consequently, the binding affinity is not greatly affected. The binding constant of GBP for glucose was calculated to be 0.78±0.07 μM, which also agrees well with the reported value of 0.8 μM (HELLINGA et al., Trends Biotechnol., 16:183-189 (1998), which is incorporated by reference herein).

[2] = Stability and reproducibility of labeled binding proteins by binding assays; type: physicochemical; conditions: 5 months after preparation
Description: The stability of the binding proteins was determined by binding assays. The labeled binding proteins can be stored in phosphate buffer at 4° C. for at least 5 months. […] While not wishing to be bound by theory, factors that could have caused this change include fluorophore and protein. In any case, the recalibration of the biosensor during its use in fermentation or cell culture is unnecessary because fermentation or cell culture usually lasts from only several hours to a few days.

[3] = Reported (literature) binding of glutamine to GlnBP; conditions: yielded by the reported ka and kd; read-out: dissociation constant
Description: (§1) This figure seeks to illustrate two things. First, the fluorescence intensity of acrylodan (λmax=515 nm) decreased with increasing concentration of glutamine. Concurrently, the luminescence intensity of Ru remained constant at λmax=610 nm. Second, the standard solutions of glutamine (0.1 to 6.4 mM) were prepared in glutamine-free Dulbecco's modified Eagle media (DMEM), a commonly used media for tissue culture. The resulting solutions were then diluted 1000× with PBS and used in the assay. The submicromolar sensitivity of the protein for glutamine remained virtually unchanged from that observed with the acrylodan label alone, as shown in DATTELBAUM et al., Anal. Biochem., 291:89-95 (2001), which is incorporated by reference herein. […]
The apparent binding constants were calculated by fitting the experimental results to the binding isotherm (DATTELBAUM et al., Anal. Biochem., 291:89-95 (2001), which is incorporated by reference herein). The binding constants for the single-labeled and doubled-labeled GlnBP were calculated to be 0.23±0.01 μM and 0.28±0.03 μM, respectively. […] The binding constant of GBP for glucose was calculated to be 0.78±0.07 μM, which also agrees well with the reported value of 0.8 μM (HELLINGA et al., Trends Biotechnol., 16:183-189 (1998), which is incorporated by reference herein). […]

[4] = Glutamine measurement in lymphoblast cell culture, GlnBP sensor versus YSI; conditions: cell culture medium
Description: The cells used in the cell culture came from two different cell lines, GM010178 and GM14649, both lymphoblasts from […]. These cell lines were obtained commercially from Coriell Cell Repositories, and have been grown in a solution of 15% Fetal Bovine Serum in RPMI Medium 1640 with GlutaMAX™ (Gibco™, Grand Island, N.Y.). For the 100 mL cell culture, 50 mL of fresh medium was mixed with 50 mL of inoculum in a 250 mL polystyrene flask, and then incubated in a CO2 incubator (Precision Scientific, Chicago, Ill.) until the color of the medium turned from red to yellow. 1 mL of sample was taken from the culture every 2 h for analysis. […] The glutamine concentration was then measured with a YSI 2700 Chemistry Analyzer and concurrently with the glutamine biosensor by diluting a small volume of sample 1,000 times. […] One microliter of sample was taken each time and the glutamine concentration was measured with the present biosensor thereafter.
As in the determination of glucose, analysis of glutamine by the GlnBP sensor was compared to the YSI Chemistry Analyzer. […] The hydrogen peroxide that is released is detected at the platinum electrode. Since glutamate oxidase can also detect the glutamate that is already present in the media, the reading of the glutamine sensor is actually the sum of glutamine and glutamate in the media. […]

[5] = cited from earlier work
[6] = Steady-state emission intensity ratio (I515/I610) of Ru-GlnBP-Acr versus glutamine; type: binding
Description: Steady-state emission spectra were recorded on a Varian Cary Eclipse spectrofluorimeter (Varin Instruments, Walnut Creek, Calif.). Time-resolved luminescence decays were measured on a frequency domain fluorimeter (ISS-Koala, Champaign, Ill.) with the following modifications. Blue LED LNG992CFBW (Panasonic, Secaucus, N.J.) driven by a current source was used as the excitation source. The modulation voltage was applied through bias T. The standard radiofrequency amplifier for the photomultiplier tubes was replaced with a ZHL-6A 1-circuits, Brooklyn, N.Y.) to enhance the low-frequency performance. The excitation light was filtered by 500-, 550-, and 650 FL07 short-wave pass filters (Andover, Salem, N.H.). The emission light was filtered by a 500 FH90 long-wave pass filter (Andover). Luminescence decay data were analyzed by nonlinear least-squares methods.
as §1, with “assay.” for “assay. The submicromolar sensitivity of the protein for glutamine remained virtually unchanged from that observed with the acrylodan label alone, as shown in DATTELBAUM et al., Anal. Biochem., 291:89-95 (2001), which is incorporated by reference herein.”

Kd ([1]; listed as single-labeled GlnBP)	Kd [1]	Kd [3]	Kd ([6]; from I515/I610 ratio, glutamine standards in DMEM diluted 1000× with PBS, 2.0 μM protein, read-out: apparent binding constant K′d for a single binding site)	Molecule	change of calibration curve after storage [2]	selectivity: response to glutamine versus glutamate [4]	ka for the binding ([5]; reported, WEINER et al.)	kd for the dissociation ([5]; reported, WEINER et al.)	Kd ([5]; literature value, read-out: reported dissociation constant for the wild type)	interference of other DMEM components with glutamine binding ([6]; DMEM diluted 1000× with PBS)
230 ± 10 nM	200 nM	163 nM		GlnBP-Acr: S179C variant of E. coli glutamine-binding protein labeled with acrylodan at cysteine 179 (protein, UniProt P0AEQ3 23-248, looked up, variant S179C, acrylodan label at C179) Glutamine-binding periplasmic …: ADKKLVVATDTAFVPFEFKQGDKYVGFDVDLWAAIAKELKLDYELKPMDFSGIIPALQTKNVDLALAGITITDERKKAIDFSDGYYKSGLLVMVKANNNDVKSVKDLDGKVVAVKSGTGSVDYAKANIKTKDLRQFPNIDNAYMELGTNRADAVLHDTPNILYFIKTAGNGQFKAVGDCLEAQQYGIAFPKGSDELRDKVNGALKTLRENGTYNEIYKKWFGTEPK	underwent some changes in 5 months after preparation, but was still responsive to glutamine	responsive to glutamine but not to glutamate	9.8e+07 M⁻¹ s⁻¹	16 s⁻¹		
				wild type: wild type glutamine-binding protein, literature dissociation constant (protein, UniProt P0AEQ3 23-248, looked up) Glutamine-binding periplasmic …: ADKKLVVATDTAFVPFEFKQGDKYVGFDVDLWAAIAKELKLDYELKPMDFSGIIPALQTKNVDLALAGITITDERKKAIDFSDGYYKSGLLVMVKANNNDVKSVKDLDGKVVAVKSGTGSVDYAKANIKTKDLRQFPNIDNAYMELGTNRADAVLHDTPNILYFIKTAGNGQFKAVGDSLEAQQYGIAFPKGSDELRDKVNGALKTLRENGTYNEIYKKWFGTEPK					100 to 300 nM	
	280 ± 30 nM		720 ± 100 nM	Ru-GlnBP-Acr: S179C GlnBP labeled at the cysteine with acrylodan and at the N-terminal with ruthenium bis-(2,2′-bipyridyl)-1,10-phenanthroline-9-isothiocyanate (protein, UniProt P0AEQ3 23-248, looked up, variant S179C, acrylodan; N-terminal ruthenium complex label, S179C GlnBP labeled at the cysteine with acrylodan and at the N-terminal with ruthenium bis-(2,2′-bipyridyl)-1,10-phenanthroline-9-isothiocyanate) Glutamine-binding periplasmic …: ADKKLVVATDTAFVPFEFKQGDKYVGFDVDLWAAIAKELKLDYELKPMDFSGIIPALQTKNVDLALAGITITDERKKAIDFSDGYYKSGLLVMVKANNNDVKSVKDLDGKVVAVKSGTGSVDYAKANIKTKDLRQFPNIDNAYMELGTNRADAVLHDTPNILYFIKTAGNGQFKAVGDCLEAQQYGIAFPKGSDELRDKVNGALKTLRENGTYNEIYKKWFGTEPK						did not interfere with the binding of glutamine
